# Experimental data taken from the DeepSol protein solubility set.
# Assay: soluble on expression in E. coli; label from the status in PepcDB or PDB records
row,Sequence,soluble on expression in E. coli
1,MLETYDWNNKLTYLKNTRDLYYNDDYVSFLVNTVWKITKPVHIVDYGCGYGYLGLVLMPLLPEGSKYTGIDSGETLLAEARELFRLLPYDSEFLEGDATEIELNDKYDIAICHAFLLHMTTPETMLQKMIHSVKKGGKIICFEPHWISNMASYLLDGEKQSEFIQLGVLQKLFESDTQRNGKDGNIGMKIPIYLSELGVKNIECRVSDKVNFLDSNMHHNDKNDLYQSLKEEGIAGDPGDKQQFVERLIARGLTYDNALAQYEAELRFFKALHLHSSLVYAPNMKITFGEIECMAGDPLEHHHHHH,soluble
2,MSLTNDIYDKGLAIRKEVVGVDSVERSLRDATEYTAPFQALATEYCWGRVWGRDELDRRTRSIANIAMMIALNRAPELRIHIKGALTNGVPRKEIAEVILQSAVYCGIPAAGDAFRQMQSVFDEADAAAACAPASPAARKSIAVIGLGAMGYPMAAQLVRAGHDVRPYDANPAVLARFAEEFNTGVAPIASCVAGADFVVTVLPDSTVVTRVLDGDNGSGGVAARIKPGATLIDMTSGDPATTRALAARLGEAGVRMIDAPVSGGFVKARTGELAIMVGGEADTVAAAMDILQAMGTSIAHVGPIGAGHTVKALNNYISAIGWLAVIEAIHTGKRFGLDVATMNRIFNQSSGRNSSTANKVEQAVLSGTYHTGFSLALMAKDVGIAVGLARQMGVDAEVGTLAHRIIQTAFDQSAEKDLDNSRLFDILYSEGHHHHHH,not soluble
3,MKEARKRMVKRAVQEIKDGMNVNLGIGMPTLVANEIPDGVHVMLQSENGLLGIGPYPLEGTEDADLINAGKETITEVTGASYFDSAESFAMIRGGHIDLAILGGMEVSEQGDLANWMIPGKMVKGMGGAMDLVNGAKRIVVIMEHVNKHGESKVKKTCSLPLTGQKVVHRLITDLAVFDFVNGRMTLTELQDGVTIEEVYEKTEADFAVSQSVLNS,soluble
4,MAMDLRDPNVWISHLLENLPEEKLASALKDDNPDWEYIDGEIVKLGSLAHAQLDIPELQRRGLQLLASESKDFRLLAHLLRTLQHAGDPLLALHLLTLYVEHYWTVAAPQNMAHKKRFASQIIKRFETVLKAFHKTLPQRSAILCWVSWRNWRSAGSHITSRNWHRLPMIFLPCTSVRLIVRLLLRSPLRRPPVVHHKPPSRLKAA,not soluble
5,MSLSLEEALLFREATVTDLKSIMNVENAAFTVPWTEAAFRNEFIINQYAYYLLAIYKEQVVGYAGVWLVLDEGHITNIAIHPDYQGNHYGEALLREMIRVAKERGVVRMTLEVRVSNDVAQGLYKKLGFQDGAIRKNYYPDTKEDALVMWVDLEGHHHHHH,soluble
6,MNRGVITISESGTVSMPTYTVWMTLQEIADMYNVFGCYVRKAVKAIFKDGILKEQGVRRHVRKNDRISYDVYSLELVIAVAFRIDSIESRAFREFIMQSVIGRQTSRTKLVCIFTENAMA,not soluble
7,SNAVYGSEVESKIIEFTIVGADEIIAEKLGISVGDFVYKIIRLRIIHSIPTIMEHTWMPIAVIPGVEASVLEESIYSYIQNKLGLKVGTSVVRVKGIRPDDKEKQFMNLTNQDFLMRVEQVAYLTDGRTFEYSYADHLPETFEFETVITAKSYKEA,soluble
8,MSLRHFFGAFLLGMATLTVMPTEQVLAGTLTGQPPIVIGHRGASGYRPEHTLAAYELAIQMGADYIEPDLVATKDGVLVARHENALAILNADGTLNLTDTSTDVFERLQFADRKTTKVIDGRSITGWFTEDFTLAELKTLRAIERIPGIRPQNTQYDRQFEIPTLQEVIDLAKAQSAALGRTIGIYPETKHPTYFDSIGLSMEEILVSVLNANGYVDESAPVYIQSFEVSNLKDLNRLTNVSLVQLISPSGRPYDFVVNGDSRLYRDLITPLGLAEIATYANGIGANKNLIIPRDGRGNLLSPTTLVDDAHAAGLIVHAWTFRNEDVFLPTNLQGNPQEEYKRFYQTGIDGLFSDNPDTAFAVRSTLVPEPGTIFGLGFVPLLGWLFRRRKEGHHHHHH,not soluble
9,MGSDKIHHHHHHMPQEPESGADLPSDRTAVFPTPEGPPLPKQVTLQAAKWLVMLQAPNTTQATRAKWQQWRDVHPDHERAWQHIEASATQMRAMHSPLAHGTLIRDDTEKRHARRRAIKLLGVIAFTGTSTWLLRDNPVWREWHADHRTATSERRTIVLADGTRIMLNTASIIDVHFDNAIRLVTLIRGEILVTTAPDSASGTGQPFIVETDQGRLRALGTRFAVRQRENDSHVSLFEGMVEIRPADASDQARVLQAGEQISFTRNAIETPQTIDTHAASWVTGMLVVQEMPLTDFIDELARYRPGYLSCDPELSHLKVSGIYPIEDTERVLDMLLHVHPIEIYSLTRYWVAIRARGDR,not soluble
10,LTAGKVDIPTPDGKMPAYRAAPAGKKDLPTLLVVSEIFGVHEYIQDVCRRLARLGYQAVAPELFARYGDPTGYTDIGRLRAEVVDKAGDRQVLADLDAAAAWAAANGGNSSRLGILGFCWGGRIVWLYAAHNPGLKAGAAWYGQLGGQASELKPRSVLESIGDLKAPVLGAYGGKDAGIPLSDVDRMRLALAKGPRAARDSRIDVYPEAPHAFHADYRPSYRKAEAEQAWQRMLDWFGQH,not soluble
11,MTEHVITSKCESPLLQAFVDNYLLLVKIAARIVGCRSRAEDVVQDAFFRLRSAPQATLTFKAQLSYLFQIVRNLAIDHYRKQALEQKYTGPEAEGLNVVIQGASPEISHINFTSLEKIADALSELPPRTRYAFEMYRLHGVPQKDIAKELGVSPTLVNFMIRDALIHCRKVNGTTAEA,not soluble
12,GPHVKSGLQIKKNAIIDDYKVTSQVLGLGINGKVLQIFNKRTQEKFALKMLQDCPKARREVELHWRASQCPHIVRIVDVYENLYAGRKCLLIVMECLDGGELFSRIQDRGDQAFTEREASEIMKSIGEAIQYLHSINIAHRDVKPENLLYTSKRPNAILKLTDFGFAKETTGEKYDKSCDMWSLGVIMYILLCGYPPFYSNHGLAISPGMKTRIRMGQYEFPNPEWSEVSEEVKMLIRNLLKTEPTQRMTITEFMNHPWIMQSTKVPQTPLHTSRVLKEDKERWEDVKEEMTSALATMR,soluble
13,MCENEEYRERFPDKHFDLETVLQAKVRPICVVPERTFIGFFHREKSKEEEEKEDVSLDFLKGVMSFDSIWEEIMKQEPEESASEHVIYIVSWNDHYFVLLVNHDAYYIIDTLGERVYEGCNQAYVLKFDQDAEIKRLPSVIKDNKADMGSQKQGGKNKYEQPERSKESEEQGEEVVVCRGKESCREYIKSFLAAIPIQQVKADMKEGLVSSFHHRLQIELYYTKHLHHRQPNMFESSTTKVTVSEATVSMTVAWLLASQFSNSGGFGCEMAELLGIKV,soluble
14,MDSYGYIETMGLLTAIEAADAALKAANVVFTNCYIVKGGIVTVELAGDVAAVTAAVEAGSESARKLGNFISKNVIARVDDETKKILKGDTFISDNNKDGKTEKEISEEELLQNEMEKEEESIEELDALEEIIKADIPTAEGDIPLYDEVIKSPEFSELENDEEAKIITETVKRNDSDGEPYETQEKITVIEEEINTKQTNNNTDYENMKVTDLRGIVKELNSHLTWNQVKAMNKKKLVETLKKNKREK,not soluble
15,PHRPVQESVANAYDALGGYLEAKADFFDPDEAAWIGNRHIDLAMSNTGVITAFNQCRSALFYRLRGKHRHPRTAKMLRYYFAAQDIHERISSAHVDYQEMSEKFKNTDIIFRIHRLLEMQGQACRNTAQALRASKDYVYSKRLGRAIEGCRQSLRLLSDSNDSPDIRHLRRLLDNLGSVDQQFRQLQHNGLQAENDRMGDTRIAALETSSLKNTWQAIRPQLNLESGVFRH,not soluble
16,MSSDMRVHSWSCSYYLDLEKQWVSGKLTLTPHSLKFIVEKTEEVLVGLPLSSIIEIRKESSLFIFGAITVLEKGQTKHWFSSLQPSRNVVFNVIEHFWRELLLSQPGTAANIPSHVTRGQELIGLMANSQKRMEDTAKDLQQQSEQLDSVLKGLEKMESDLDVADRLLTELETPSWWPFGSKFWKMPAEENLKEGVSSTCEPFGKEGVVITVPAIISERAESHSKLGKLTVLVSALEIYDSCSLLLHRFEKEDVDDIKVHSPYEVSIRQRFIGKPDVAYQLISAKMPEVIPILEVQFSSKIELLEDALVLRNKVFASSAERHAASRPKGCTPHRELPTGGQEGEQLQLQKNLPLFSEGEAQELTQILSKMKGLALDTEAELERQDAALDGITVAVDRATLNVDKQNRRMRKLM,not soluble
17,NGKLFLVGTPIGNLKDITLRALETLQNCDVIAAEDTRQSLKLLNHFDIKKPLISYHKFNENNRSSELMDMVREGKKVALVTDAGMPGISDPGSVIVEKFIENNLEFEVIPG,soluble
18,MGSDKIHHHHHHMNYKYYTIVILGLLAFSACEKDDIDIPATDNEVNQWIEQTMRENYLWYSELPDKSSLDFSLDPESFFKGLLSDKDGKELSDGHHYFSQLEKATVTKSIYDANNSYGFDFATSNLKDGGSTYKIAIVLYVLKDSPAEEAGLKRGDWILGVNGSLGSIQDYDVLRSGGSVSLQLGKETGNTKGFVSTRRVTLNASRTVEDSPFLKDSVYTYGNKRIGYLMYNHFASGPDEYDYSDTSYNLYLQQLFEKFKSRNVNEFVLDLRYNGGGLVNCAQLLASLLVRENVLGEPLCIMEYNDKNSNKNETLPLLKTTEVMAGNLNLQRLFVLTGSTTASASELIINSLRSYLDVRVIGKQTFGKTVGMTIYNESKKYGWILSPVTFHIYNKDREADYEDGFHPDVAIDEFKSDLAEFGDLKDPLLGQAIYEITGQSPLLRSATPRGNREIQYNPPLSYKDNLLLIPKD,not soluble
19,MGGDMLPSVLKDNLRLPVIASPLFIISHPQLTLAQCKAGVIGAFPALNARPESQLDEWLAMITEELAAYNRANPERPAAPFAVNQIVHMSNRRLEHDLGLCVKYKVPVVISSLGAVPEVNAAVHSYGGIVLHDVINDRHARSAIRKGADGLIAVAAGAGGHAGTLSPFALIQEIREWFDGPLLLAGAIANGGSILAAQAMGADMAYIGSPFIATEEARASDGYKQALVDAQAKDIVYSNYFTGVHGNYLKSSIVASGMDPDNLPEADPSKMDFETATGGAKAWKDIWGAGQGIGAIKAVEPVAALVDRLAAEYEAAKGRICAKA,not soluble
20,MSIILYTANDGTAQFALQEFGGQLWLTQADMAELYQTTKQNISKHIKTILAEQELEEKATVNFQLTVQNENGRKVNRKIAHYSLPMIIAVGYRVRSARGIQFRQWATERLDEYLTKGFAIDDERLKGTGGGDYWKELLNRIRDIRSSEKALYRQVLDLYATSQDYNPKSSESQTFFAAVQNKLHYAASRQTAAELIYSRADSSKDFMGLTTFQGAIPTLNEAKIAKNYLTEDELFRLNRLVSAFFDLAEIKAQEQSPMYMRDWIAELDKFSGLYGQGTLQGAGSISRKQAEQKAEREYRAYEARILSPVEQAYLESVKALEKTAVQQIKQKKDRTK,not soluble
21,MGSDKIHHHHHHMNYLEAEDLTTGYGRQVISEALNCSFEAGTITSIIGPNGCGKSTLLKTLARILPAEKGKVFIKNQELQHFSSKEVAQELAILSQTPENTIDLSVFDLVSFGRYPYQSGWKSVTTEDQEYIQWALELTGLTELARESVAILSGGQRQRVWIAMALVQDTDILILDEPTTYLDPAHQLEILNVLKRINQEHQKTIVMTIHDINLASRFSDRVIAMKEGKIINEGTPQEVITVTGLADVFAIQAEISYHSQTQRPLVLSYELMEMELDG,not soluble
22,MTYELCLEYGTYPLSRVDAYWGEDQNPPTFIQEDRLLCHKLETMNHLFHDLFVTIESQFHYVGFNMPEKRAQIRILYQEVATILKSKYKDYPIKIETFLL,not soluble
23,KRRFELRGIVNNISVYDDFAHHPTAIAKTLAGVRAKLSQQESEQEQVGRIFAVLEPRSNTMRSGVHKESLPKSLIDADQVFIYQGEQVTWSVSDLIKQCKPACQVEDNVERLVESIAQQAQAGDIIVVMSNGGFADIHNKLLNRLANIPVPLEDA,not soluble
